Assay results as given in the supplement of paper PMC7125110.
± gives the standard error. Fewer inactive variants are shown than the library holds.

B1: glmS ribozyme (parent)
chain: AUAAAAGCGCCAGAACUACAGAAAUGUAGUUGACGAGGAGGAGGUUUAUCGAAUUUUCGGCGGAUGCCUCCAAA

Legend:
Settings in all cases: with glucosamine-6-phosphate
[1] = variants of: B1; test: self-cleavage kobs at 40 uM GlcN6P; higher = faster cleavage; RNA array
Method in brief: (§1)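 Glucosamine-6-phosphate, from 40 μM to 10 mM in HEPES/KCl/Mg(OAc)2 buffer, was flowed over sequenced MiSeq chips carrying barcoded ribozyme variants transcribed in situ by E. coli RNA polymerase. A hybridised Cy3 probe tracked the variants at 37 °C as tiles were imaged over ~14 h. kobs, kcat and KM were obtained by fitting normalised per-tile medians to exponential decays and then applying weighted Michaelis–Menten fits across concentrations.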

[2] = variants of: B1; test: self-cleavage kobs at 160 uM GlcN6P; higher = faster cleavage; RNA array
Method in brief: as §1

[3] = variants of: B1; test: self-cleavage kobs at 640 uM GlcN6P; higher = faster cleavage; RNA array
Method in brief: as §1

[4] = variants of: B1; test: self-cleavage kobs at 2500 uM GlcN6P; higher = faster cleavage; RNA array
Method in brief: as §1

[5] = variants of: B1; test: self-cleavage kobs at 10000 uM GlcN6P; higher = faster cleavage; RNA array
Method in brief: as §1

Variant	self-cleavage kobs at 40 uM GlcN6P [1] [s⁻¹]	self-cleavage kobs at 160 uM GlcN6P [2] [s⁻¹]	self-cleavage kobs at 640 uM GlcN6P [3] [s⁻¹]	self-cleavage kobs at 2500 uM GlcN6P [4] [s⁻¹]	self-cleavage kobs at 10000 uM GlcN6P [5] [s⁻¹]
G38U U45C	< 1e-05	< 1e-05	< 1e-05	< 1e-05	< 1e-05
G37C C50U C70A	0.00229 ± 0.00095	–	–	–	–
G37U C58A G60C C70A	< 1e-05	–	–	–	< 1e-05
G38U G51U U54G G66A	< 1e-05	–	–	–	–
G37U G62A	< 1e-05	< 1e-05	–	–	–
G35C A52C	< 1e-05	< 1e-05	< 1e-05	< 1e-05	< 1e-05
G35C C68A	< 1e-05	< 1e-05	< 1e-05	< 1e-05	< 1e-05
A36U C50U A52G C70G	0.000113 ± 3.1e-05	–	0.000329 ± 7.9e-05	0.000173 ± 8.2e-05	–
G37U G38A	< 1e-05	–	–	–	< 1e-05
G35C G41U	< 1e-05	< 1e-05	< 1e-05	< 1e-05	< 1e-05
G35C G41A	< 1e-05	< 1e-05	< 1e-05	< 1e-05	< 1e-05
A36C G59A C67A	< 1e-05	–	–	–	< 1e-05
G38A U57A U65C	< 1e-05	–	–	–	–
G35C A48G	< 1e-05	< 1e-05	–	< 1e-05	–
A39G A42U U57A	< 1e-05	< 1e-05	–	–	–
G35C C50U	< 1e-05	< 1e-05	< 1e-05	< 1e-05	< 1e-05
A36G G38A C58A	< 1e-05	–	< 1e-05	–	< 1e-05
G37U G41U U56A G62A G63U	< 1e-05	–	–	–	–
G38U A39U G60C C68A	< 1e-05	–	–	< 1e-05	–
A36U G43C	< 1e-05	< 1e-05	< 1e-05	< 1e-05	–
G38A U46G A52U	< 1e-05	–	–	–	–

Variant	self-cleavage kobs at 40 uM GlcN6P [1] [s⁻¹]	self-cleavage kobs at 160 uM GlcN6P [2] [s⁻¹]	self-cleavage kobs at 640 uM GlcN6P [3] [s⁻¹]	self-cleavage kobs at 2500 uM GlcN6P [4] [s⁻¹]	self-cleavage kobs at 10000 uM GlcN6P [5] [s⁻¹]
G38C U45C U55C	< 1e-05	–	–	< 1e-05	–
A36C G37A G59C C71U	< 1e-05	–	–	< 1e-05	< 1e-05
G35U A48C G60C	< 1e-05	–	–	< 1e-05	< 1e-05
G35U G40C	< 1e-05	< 1e-05	< 1e-05	< 1e-05	< 1e-05
G35U G40A	< 1e-05	< 1e-05	< 1e-05	–	< 1e-05
G38U A53G	< 1e-05	< 1e-05	< 1e-05	–	–
G37U U54G A64U	< 1e-05	–	–	–	< 1e-05
G38U G41A U69G	< 1e-05	< 1e-05	< 1e-05	< 1e-05	–
G37A G44U U65G	< 1e-05	< 1e-05	< 1e-05	–	< 1e-05
G35C U55C	< 1e-05	< 1e-05	–	< 1e-05	< 1e-05
A36U C61G A64C	< 1e-05	–	–	–	–
A36G U56C	< 1e-05	< 1e-05	< 1e-05	< 1e-05	–
A39C A42C C68G	< 1e-05	–	–	–	–
G38A A39G	< 1e-05	< 1e-05	< 1e-05	< 1e-05	–
A39C G41U	< 1e-05	< 1e-05	–	–	–
A36U A39G G51A A53U	< 1e-05	–	< 1e-05	< 1e-05	< 1e-05
A36G C50G C68U	0.000269 ± 0.0001	0.000434 ± 0.00013	0.000436 ± 0.00017	9.73e-05 ± 3.6e-05	0.000205 ± 5.4e-05
G35C A64G C67U	< 1e-05	–	–	–	< 1e-05
G37U G40U	< 1e-05	< 1e-05	< 1e-05	< 1e-05	< 1e-05
G37U G40C	< 1e-05	< 1e-05	< 1e-05	< 1e-05	< 1e-05
G38A A52G	< 1e-05	–	< 1e-05	< 1e-05	< 1e-05

Variant	self-cleavage kobs at 40 uM GlcN6P [1] [s⁻¹]	self-cleavage kobs at 160 uM GlcN6P [2] [s⁻¹]	self-cleavage kobs at 640 uM GlcN6P [3] [s⁻¹]	self-cleavage kobs at 2500 uM GlcN6P [4] [s⁻¹]	self-cleavage kobs at 10000 uM GlcN6P [5] [s⁻¹]
A36C G40A U56G	< 1e-05	–	–	–	–
G35A U47G	< 1e-05	< 1e-05	< 1e-05	< 1e-05	< 1e-05
A36G U47C	< 1e-05	–	–	–	< 1e-05
G38A G41U	< 1e-05	< 1e-05	< 1e-05	–	< 1e-05
G38A G41A	< 1e-05	< 1e-05	< 1e-05	< 1e-05	< 1e-05
G37A A42U C70A	< 1e-05	–	–	–	–
A36G G60U G66U	< 1e-05	–	< 1e-05	< 1e-05	< 1e-05
A36U G44U	< 1e-05	< 1e-05	< 1e-05	< 1e-05	< 1e-05
G37C U45C G59U C68G	< 1e-05	–	< 1e-05	–	< 1e-05
A36G G60U	< 1e-05	< 1e-05	< 1e-05	< 1e-05	< 1e-05
G35C U45G	< 1e-05	< 1e-05	–	< 1e-05	< 1e-05
G37C U46G A48U	< 1e-05	–	–	–	< 1e-05
G35U U47A U57C	< 1e-05	–	–	–	–
A36U G37U G40A A52C C58U	< 1e-05	–	–	–	–
G37U G51C C71U	< 1e-05	< 1e-05	< 1e-05	–	< 1e-05
G35A A42G A52G C70U	< 1e-05	< 1e-05	–	< 1e-05	–
A36G C58A	< 1e-05	–	–	< 1e-05	< 1e-05
A36G C58U	< 1e-05	–	< 1e-05	< 1e-05	< 1e-05
G38U G40C	< 1e-05	–	< 1e-05	< 1e-05	< 1e-05
G38U A39G G43U G44C	< 1e-05	–	–	–	< 1e-05
G35U A64C	< 1e-05	< 1e-05	< 1e-05	< 1e-05	< 1e-05

Variant	self-cleavage kobs at 40 uM GlcN6P [1] [s⁻¹]	self-cleavage kobs at 160 uM GlcN6P [2] [s⁻¹]	self-cleavage kobs at 640 uM GlcN6P [3] [s⁻¹]	self-cleavage kobs at 2500 uM GlcN6P [4] [s⁻¹]	self-cleavage kobs at 10000 uM GlcN6P [5] [s⁻¹]
A36G G43A U54G	< 1e-05	–	< 1e-05	< 1e-05	< 1e-05
G35U A53G	< 1e-05	< 1e-05	< 1e-05	< 1e-05	< 1e-05
A39G A42C U69G C70A	< 1e-05	–	–	–	–
G35U C58G G62U	< 1e-05	–	–	–	–
A36U G43A U56A	< 1e-05	–	< 1e-05	–	< 1e-05
G38U G40C G60A	< 1e-05	–	–	–	–
G38C A48U	< 1e-05	–	–	–	< 1e-05
A36G G51A	< 1e-05	< 1e-05	< 1e-05	–	–
G35U G37U G63U U65C	< 1e-05	–	–	–	–
G35U U45G	< 1e-05	< 1e-05	< 1e-05	< 1e-05	< 1e-05
G37U G41U	< 1e-05	< 1e-05	–	< 1e-05	< 1e-05
A36U C50G A64G C70G	0.000457 ± 0.00012	–	–	0.000298 ± 0.00013	0.000194 ± 4.9e-05
C34U U55G	< 1e-05	< 1e-05	< 1e-05	–	–
G35A A48U	< 1e-05	< 1e-05	< 1e-05	< 1e-05	< 1e-05
A36G G44U	< 1e-05	< 1e-05	< 1e-05	–	< 1e-05
A36U C68G C70U	8.4e-05 ± 2.2e-05	–	–	–	0.000213 ± 4.7e-05
G35A A36C	< 1e-05	< 1e-05	< 1e-05	< 1e-05	–
G35A A36G	< 1e-05	< 1e-05	< 1e-05	< 1e-05	–
G37C U46G	< 1e-05	< 1e-05	< 1e-05	–	–
G37A A48G	< 1e-05	< 1e-05	–	–	–
A36C C58G U69G	7.56e-05 ± 2.1e-05	–	–	–	5.12e-05 ± 1.9e-05
